# From IntAct's records for PubMed 23969831
# B1: Protrudin (Homo sapiens), Q5T4F4 (parent)
# chain: MQTSEREGSGPELSPSVMPEAPLESPPFPTKSPAFDLFNLVLSYKRLEIYLEPLKDAGDGVRYLLRWQMPLCSLLTCLGLNVLFLTLNEGAWYSVGALMISVPALLGYLQEVCRARLPDSELMRRKYHSVRQEDLQRGRLSRPEAVAEVKSFLIQLEAFLSRLCCTCEAAYRVLHWENPVVSSQFYGALLGTVCMLYLLPLCWVLTLLNSTLFLGNVEFFRVVSEYRASLQQRMNPKQEEHAFESPPPPDVGGKDGLMDSTPALTPTEDLTPGSVEEAEEAEPDEEFKDAIEETHLVVLEDDEGAPCPAEDELALQDNGFLSKNEVLRSKVSRLTERLRKRYPTNNFGNCTGCSATFSVLKKRRSCSNCGNSFCSRCCSFKVPKSSMGATAPEAQRETVFVCASCNQTLSK
# B2: Atlastin-1 (Homo sapiens), Q8WXF7 (parent)
# chain: MAKNRRDRNSWGGFSEKTYEWSSEEEEPVKKAGPVQVLIVKDDHSFELDETALNRILLSEAVRDKEVVAVSVAGAFRKGKSFLMDFMLRYMYNQESVDWVGDYNEPLTGFSWRGGSERETTGIQIWSEIFLINKPDGKKVAVLLMDTQGTFDSQSTLRDSATVFALSTMISSIQVYNLSQNVQEDDLQHLQLFTEYGRLAMEETFLKPFQSLIFLVRDWSFPYEFSYGADGGAKFLEKRLKVSGNQHEELQNVRKHIHSCFTNISCFLLPHPGLKVATNPNFDGKLKEIDDEFIKNLKILIPWLLSPESLDIKEINGNKITCRGLVEYFKAYIKIYQGEELPHPKSMLQATAEANNLAAVATAKDTYNKKMEEICGGDKPFLAPNDLQTKHLQLKEESVKLFRGVKKMGGEEFSRRYLQQLESEIDELYIQYIKHNDSKNIFHAARTPATLFVVIFITYVIAGVTGFIGLDIIASLCNMIMGLTLITLCTWAYIRYSGEYRELGAVIDQVAAALWDQGSTNEALYKLYSAAATHRHLYHQAFPTPKSESTEQSEKKKM
# partner: B1 chain
# B3: Protrudin (Homo sapiens), Q5T4F4 (parent)
# chain: B1 chain
# partner: B2 chain
# Variants of: B1
# Settings: with reep5_human REEP5, Q00765
# reep5_human REEP5, Q00765, sequence (Q00765 whole entry): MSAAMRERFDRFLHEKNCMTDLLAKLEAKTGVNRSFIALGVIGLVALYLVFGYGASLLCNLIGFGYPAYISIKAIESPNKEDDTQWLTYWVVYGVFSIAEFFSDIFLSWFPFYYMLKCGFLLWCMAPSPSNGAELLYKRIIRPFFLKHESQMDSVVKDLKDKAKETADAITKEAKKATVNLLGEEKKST
row,Variant,effect of a mutation on the interaction
1,P200A,decreasing interaction strength
2,G191V,with no effect

# Variants of: B2
# Settings: with zfy27_human ZFYVE27, Q5T4F4
row,Variant,effect of a mutation on the interaction
1,G469A,with no effect
2,S519A,with no effect
3,K80A,with no effect
4,R495W,with no effect

# Variants of: B3
# Settings: with atla1_human ATL1, Q8WXF7
row,Variant,effect of a mutation on the interaction
1,G191V,with no effect
